From paper PMC4014737

Biological target: biotinylated yeast L3Δ21 peptide (S. cerevisiae) (UniProt P14126)
Experiment: SPR; Biacore 3000; biotinylated L3Δ21 peptide on an SA sensor chip (Fc2), PAP as analyte at 103, 94, 75 and 45 pM; 25 °C; HBS-EP (0.1 M HEPES pH 7.4, 0.15 M NaCl, 3 mM EDTA, 0.005% polysorbate 20); 1:1 Langmuir fit

Sequence of UniProt P14126 (P14126 1-21, stated change not applied): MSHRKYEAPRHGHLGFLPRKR

For “His-tagged pokeweed antiviral protein (PAP), recombinant (enzyme)”, the Kd was 24.8 nM, the koff was 4.6e-05 s⁻¹ and the kon was 1860 M⁻¹ s⁻¹.
